Laboratory results reported in US10286070B2, “Oncostatin M (OSM) antagonists for preventing cancer metastasis and IL-6 related disorders” (Boise State University, priority 2013, dated 2019).
Entries after “also recorded” stand apart in the source; their conditions may differ.

Key:
[1] = system: Du145 and PC3+STAT3 human prostate cancer cells; test: OSM-induced detachment of human prostate cancer cells; assay type: cell-based; conditions: OSM 5 ng/mL, inhibitors 5 μM, 5 days
Method: FIGS. 15A and 15B. […] Detachment for FIG. 15A) Du145 and 15B) PC3+STAT3 human prostate cancer cells. 10,000 cells were plated in a 24-well plate in 1 mL complete media that was pre-incubated with OSM (5 ng/mL) and inhibitors (5 μM) for 1 hour. After 5 days, the detached cells were stained with Trypan Blue and counted using a hemocytometer.

[2] = system: pSTAT3, pJNK, pERK, and pAKT signaling; test: Western blot analysis of downstream OSM signaling in MDA-MB-231 cell lysates; assay type: cell-based, human; conditions: MDA-MB-231 cells; 5 μM
[3] = system: MDA-MB-231 D3H2LN luc2 cells; test: MDA-MB-231 D3H2LN luc2 orthotopic xenograft with peri-tumoral OSM injections; assay type: in vivo, mouse
Method: For xenograft models, six-week-old female nude mice were obtained from the National Cancer Institute's Animal Production Facility (Frederick, Md.). Non-surgical orthotopic injections were performed using 2.0×10^6 cells diluted in 50 μL of PBS containing 10% medium. When the tumors became palpable, mice were randomized into groups and began receiving per-tumoral injections. For peri-tumoral injections, either 50 μL PBS or 1 μg recombinant full length human OSM (Peprotech) diluted in 50 μL PBS was injected into the area surrounding the tumor three times per week until the end point of the experiment.
Detection of human circulating tumor cells (CTCs) in mouse blood was performed. Human DNA standard curve was prepared by adding a specified number of human MDA-MB-231 cells into mouse blood and the DNA isolated for use in the qPCR reactions. Whole DNA was isolated from 100 μl of whole blood collected from mice at the end of the experiment. DNA was isolated using DNeasy Blood & Tissue kit (Quiagen Cat#) using the manufacturer's standard instructions. DNA concentrations were normalized between each sample and 4.5 ng of DNA was added to each 25 μl qPCR reaction. qPCR reaction mixture was obtained from the GoTaq qPCR Master Mix (Promega, Cat#TM318, Madison Wis.), and reaction mixtures were prepared in accordance with manufacturer recommendations. 0.125 μl of 100 μM primers for human Alu fragment, and for GAPDH was added to each reaction. The primer sequences used for Alu was (s:[…] a:[…]) and for
GAPDH the sequence used was (s: […]; a: […]). The qPCR reaction was done with SYBR green chemistry using a CXR reference dye and ran on an Applied Biosystems AB7300 real-time thermocycler. Reaction conditions were: 50° C. for 2 minutes, 95° C. for 3 minutes and 40 cycles of: (95° C. 00:15, 60° C. 00:30, 72° C. 00:30) and fluorescence measurements were taken during the annealing temperature stage (60° C.). cT values were determined and the final results were normalized to GAPDH signal levels.
BLI of live animals was initiated at 13 days after cell line injection and performed weekly. Three to five mice were imaged at one time. Ex vivo organs were also imaged using BLI. Both procedures follow our previously described protocols.
To determine the influence of OSM in human breast cancer, we used a xenograft model. MDA-MB-231 D3H2LN luc2 cells were injected into the fourth mammary fat pads of female nude mice. After the tumors were palpable, OSM (1 μg) or PBS were injected peri-tumorally 3 times per week (FIG. 6A), and mice were monitored until the end-point criteria were met. Tumor size was measured using calipers three times per week for the duration of the experiment and expressed as tumor volume (mm^3)=[…]. […] Next, BLI intensity of the cells was assessed in vivo. The BLI intensities of the tumors from both groups were similar with variations in intensities in both groups (FIG. 6C). A few mice in both groups had lower BLI intensities due to tumor necrosis.
Ex vivo analysis of the lungs was performed. […] Next, quantification of the BLI intensities of the lungs was performed.
Our studies on detecting CTCs involve the usage of the Alu transposon repeats for detecting human cells in mouse blood, and with colony forming assays that detects all transformed cells in the blood. […] In order to detect circulating tumor cells in the mouse circulatory system, DNA was isolated from mouse blood, and human alu fragment concentrations were determined in the blood by qPCR. […]

[4] = system: OSM-induced phosphorylation of STAT3 on Tyr-705 (pSTAT3); test: pSTAT3 ELISA after OSM stimulation; assay type: cell-based; conditions: human breast cancer cells; OSM 25 ng/ml, 30 minutes
Text: FIGS. 16A-16D. […] This method can be used for in vitro screening of lead compounds that inhibit OSM signaling. […] Cell lysates were collected and pSTAT3 levels were measure by ELISA.
Next an enzyme-linked immunosorbent assay (ELISA) for analyzing initial OSM-induced phosphorylation of STAT3 on Tyr-705 (pSTAT3) will be employed for the initial screen. […] The ability of the top 100 OSM-SMIs to inhibit OSM-OSMR interactions that result in expression of pSTAT3 will be evaluated by this assay and cells will be pretreated with the OSM-SMIs for 2 hours prior to the addition of OSM. As positive controls, neutralizing antibodies to human OSM or human gp130 will establish baseline pSTAT3 levels in the ELISA assay (FIG. 16A).
Actual physiological levels of OSM may be much lower than the nanogram levels used here. […] Therefore, testing inhibitors using lower concentrations of OSM may better allow for the detection of Effects at physiologically relevant concentrations.
Additionally, a functional dose response curve for OSM-SMI activity will be generated through 2 log units of concentration of compounds and used to establish the dynamic range of OSM-SMI activity. This will be used to determine the half maximal inhibitory concentration (IC50) as well as the minimum effective concentration (Ceff) for each compound.

[5] = system: DU-145 prostate cancer cell line; test: Proliferation, detachment and morphology of DU-145 cells treated with OSM; assay type: cell-based, human; conditions: OSM 17.5 ng/ml
Method: (§1) Prostate cancer cell lines DU-145 and PC-3 were plated in triplicate in complete RPMI media at a cell density of 1,000 cells/ml and allowed to adhere overnight. Cells were treated the next day with OSM at a concentration of 17.5 ηg/ml (untreated cells were used as a control). Both detached cells and total cells were counted on days 1, 3, 5, 7, and 9. Detached cells were collected, stained with trypan blue and viable cells were counted using a hemocytometer. Adherent cells were trypsinized, stained with trypan blue and viable cells were counted on a hemocytometer. To look at the effects of OSM on prostate cancer cell proliferation, the number of viable detached cells and adherent cells were added together to determine the total number of cells.
The Epithelial-Mesenchymal Transition (EMT) was also measured. During the proliferation and detachment assays detailed above, micrographs of the DU-145 cells were taken at day 5 before cells were collected and counted.

IL-6 [6] = test: IL-6 ELISA on conditioned media of OSM treated human breast cancer cell lines; assay type: cell-based; conditions: OSM 25 ηg/ml, 48 hours
Method: (§2) 1×10^5T47D, MDA-MB-231, MCF7, MDA-MB-468, or 4T1.2 cells were plated in multi-well plates in the presence or absence of OSM for […]. Conditioned media was collected, diluted 1:5 and an IL-6 ELISA was performed as according to the manufacturer's recommended instructions.
(§3) OSM induced IL-6 expression was studied on various cell lines including two ER+ cell lines, T47D and MCF7, and three ER− cell lines MDA-MB-468, MDA-MB-231, and 4T1.2 cells. rhOSM was used for the four human cell lines at a concentration of 25 ηg/ml while rmOSM was used for the 4T1.2 cells at a concentration of 25 ηg/ml. The cells were incubated in OSM for a total of 48 hours and IL-6 levels in the conditioned media was assessed by ELISA. […] In the 4T1.2 mouse mammary cancer cells, OSM induced IL-6 by approximately 4-fold (FIG. 7). To test if OSM induced IL-6 in vivo, tumors from the MDA-MB-231 injected mice were lysed, homogenized, and the IL-6 levels were analyzed by ELISA.

[7] = system: DU-145 prostate cancer cell line; test: Matrigel invasion assay, DU-145; assay type: cell-based, human
Method: (§4) FIG. 14. Invasive Potential for the DU-145 and PC-3 Prostate Cancer Cell Lines.
(§5) Invasion potential was also measured. OSM increased the invasion potential of both DU-145 and PC-3 cell lines (FIG. 14).

[8] = system: PC-3 prostate cancer cell line; test: Matrigel invasion assay, PC-3; assay type: cell-based, human
Method: as §4, §5

[9] = system: PC-3 prostate cancer cell line; test: Proliferation and detachment of PC-3 cells treated with OSM; assay type: cell-based, human; conditions: OSM 17.5 ng/ml
Method: as §1

IL-6 [10] = test: IL-6 ELISA on conditioned media of OSM treated 4T1.2 cells; assay type: cell-based, mouse; conditions: rmOSM 25 ηg/ml, 48 hours
Method: as §2, §3

Question: Which OSM-induced detachment [1] does the source give for `O=[N+]([O-])c1c(/C=N/Nc2ccccc2)oc(-c2ccc3c(c2)OCO3)c1-c1ccc2c(c1)OCO2` [OSM-SMI-10] here?
Answer: decrease OSM-induced detachment

Question: What about the “inhibition of OSM downstream signaling” value [2] of the same molecule?
Answer: inhibited signaling to various extents

Question: For `Cc1nc(C(N)=S)sc1C(=O)CC(=O)C(=O)Nc1nc2ccccc2[nH]1` [OSM-SMI-11], which OSM-induced detachment [1] is on record?
Answer: decrease OSM-induced detachment

Question: And the “inhibition of OSM downstream signaling” value [2]?
Answer: inhibited signaling to various extents

B1: OSM: Oncostatin M, IL-6 family cytokine; recombinant human OSM used as stimulus on cells and by peri-tumoral injection (protein, listed as Homo sapiens)
chain: MGVLLTQRTLLSLVLALLFPSMASMAAIGSCSKEYRVLLGQLQKQTDLMQDTSRLLDPYIRIQGLDVPKLREHCRERPGAFPSEETLRGLGRRGFLQTLNATLGCVLHRLADLEQRLPKAQDLERSGLNIEDLEKLQMARPNILGLRNNIYCMAQLLDNSDTAEPTKAGRGASQPPTPTPASDAFQRKLEGCRFLHGYHRFMHSVGRVFSKWGESPNRSRRHSPHQALRKGVRRTRPSRKGKRLMTRGQLPR
Question: Which “metastatic volume within the lungs” value ([3]; ex vivo analysis, peri-tumoral OSM versus PBS) does the source give for B1 here?
Answer: larger metastatic volume

Question: And the “BLI intensities of the lungs, OSM injected group higher than PBS injected group” value ([3]; ex vivo lungs, orders of magnitude)?
Answer: 10^2

Question: And the “tumor volume versus PBS group” value ([3]; female nude mice, OSM 1 μg peri-tumorally 3 times per week)?
Answer: did not differ

Question: And the “ex vivo lung BLI intensity versus PBS injections” value ([3]; female nude mice, peri-tumoral OSM)?
Answer: 200 fold

Question: What about the “increase in number of circulating tumor cells per 100 μl of mouse blood” value ([3]; human Alu qPCR, versus animals without OSM injections) of the same molecule?
Answer: 3.5 fold

Question: And the “induction of pSTAT3 by OSM” value [4]?
Answer: induced pSTAT3; also recorded: induce pSTAT3 expression

Question: And the detachment ([5]; 5 days, versus untreated cells)?
Answer: significantly increased; also recorded: increased detachment

Question: And the proliferation ([5]; 5 days, versus untreated cells)?
Answer: significantly increased; also recorded: increased proliferation

Question: What about the “morphology (EMT)” value ([5]; day 5) of the same molecule?
Answer: more mesenchymal morphology; also recorded: mesenchymal orphology characteristic of having undergone EMT

Question: What about the “IL-6 induction by OSM” value (IL-6 [6]; MCF7 cells (ER+)) of the same molecule?
Answer: did not change

Question: What about the “IL-6 induction by OSM” value (IL-6 [6]; MCF7 cells (ER+), listed as rhOSM) of the same molecule?
Answer: did not induce IL-6

Question: And the “IL-6 induction by OSM” value (IL-6 [6]; MDA-MB-231 cells)?
Answer: 4-5 fold

Question: And the “IL-6 induction by OSM” value (IL-6 [6]; MDA-MB-231 cells, listed as rhOSM)?
Answer: approximately 4 fold

Question: What about the “IL-6 induction by OSM” value (IL-6 [6]; MDA-MB-468 cells) of the same molecule?
Answer: 4-5 fold

Question: And the “IL-6 induction by OSM” value (IL-6 [6]; MDA-MB-468 cells, listed as rhOSM)?
Answer: approximately 5 fold

Question: What about the “IL-6 induction by OSM” value (IL-6 [6]; T47D cells (ER+)) of the same molecule?
Answer: did not change

Question: What about the “IL-6 induction by OSM” value (IL-6 [6]; T47D cells (ER+), listed as rhOSM) of the same molecule?
Answer: did not induce IL-6

Question: What about the invasion potential ([7]; OSM 17.5 ng/ml, 24 hours) of the same molecule?
Answer: increased invasion potential

Question: What about the “treated cells showing an invasive potential” value ([7]; OSM treated DU-145 cells) of the same molecule?
Answer: Twenty three

Question: What about the invasion potential ([8]; OSM 17.5 ng/ml, 24 hours) of the same molecule?
Answer: increased invasion potential

Question: And the “treated cells showing an invasive potential” value ([8]; OSM treated PC-3 cells)?
Answer: 21%

Question: What about the “increase in invasive potential versus untreated” value ([8]; PC-3 cells pretreated with OSM for 72 hours) of the same molecule?
Answer: 4 fold

Question: And the detachment [9]?
Answer: not and did not show increased detachment

Question: And the proliferation [9]?
Answer: not and did not show increased proliferation

Question: What about the “IL-6 induction by OSM” value (IL-6 [10]) of the same molecule?
Answer: 4-5 fold

B2: rmOSM: recombinant mouse OSM used for the 4T1.2 cells (protein, UniProt P53347 25-206, looked up)
Oncostatin-M: NRGCSNSSSQLLSQLQNQANLTGNTESLLEPYIRLQNLNTPDLRAACTQHSVAFPSEDTLRQLSKPHFLSTVYTTLDRVLYQLDALRQKFLKTPAFPKLDSARHNILGIRNNVFCMARLLNHSLEIPEPTQTDSGASRSTTTPDVFNTKIGSCGFLWGYHRFMGSVGRVFREWDDGSTRSRR
Question: For B2, which “IL-6 induction by OSM” value (IL-6 [10]) is on record?
Answer: approximately 4 fold
